Fewer inactive variants are shown than the library holds. Where only a bound is given, the exact number is not on record here.

From the RNAGym collection of RNA variant scans (doi:10.1073/pnas.2313332121) come the findings set out here.

The chains are these.
B1: TPR 5TU (parent)
chain: GGAUCUUCUCGAUCUAACAAAAAAGACAAAUCUGCCACAAAGCUUGAGAGCAUCUUCGGAUGCAGAGGCGGCAGCCUUCGGUGGCGCGAUAGCGCCAACGUUCUCAACUAUGACACGCAAAACGCGUGCUCCGUUGAAUGGAGUUUAUCAUG

Variants of B1 are the subject of the data set. In words: polymerase ribozyme fitness, log enrichment relative to wild type (log ratio); higher = more active; in vitro selection for triplet polymerase activity. An outline of the steps:
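PCR was used to build mutant libraries for each subunit of a heterodimeric triplet polymerase ribozyme, which were then transcribed. A single in vitro selection round, in triplicate, used a frozen incubation at −7 °C and recovered extended constructs by gel excision, streptavidin beads and RT-PCR. Fitness is the logarithm of genotype enrichment relative to wild-type enrichment, averaged over replicates with inverse-variance weights. The logarithm is base 2, and after Illumina sequencing only genotypes with ≥10 input reads and ≥1 read per output were kept.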
G59C G81U G83A G124A G141U: the “polymerase ribozyme fitness (log ratio)” value came out at 0.692.
With A60C G80A the figure was -2.27; with G59U C93U C114G, -3.92; with G58U A150C, -3.57.
For A60C C76A G92U C95A U145G C149G, the “polymerase ribozyme fitness (log ratio)” value was not above -4.2.
In the case of G59C G133U, the “polymerase ribozyme fitness (log ratio)” value is -3.47.
The same measure for G59C U61G C96G C105U A115U A150U: not above -4.2.
With G59U A98G the figure was 0.162; with G58C U61C G70C C76G C96U A138G G140U C149G, not above -4.2.
With G59C G100A A115C U144C the figure was not above -4.2; with G59C A60G C69U, -2.47.
Regarding G59C G81A, the “polymerase ribozyme fitness (log ratio)” value was -2.07.
The same measure for G59C A89U G92C A121G: -2.45.
G59A A60G: the “polymerase ribozyme fitness (log ratio)” value is -0.0653.
The same measure for G59A A60C: -1.48.
The same measure for G58C C96U A98G A121G: -0.614; for G58C G83A G84U G92U U135A U139G G141A: not above -4.2.
As to G59C G86A, the “polymerase ribozyme fitness (log ratio)” value is -2.61.
With G58U C85G the figure was -1.61; with A60C A89C G94A, -1.69.
With G58C U82G C99G the figure was -1.45; with A60C U82G G86A U146G, -3.33.
The same measure for G59U A89U C95G: -2.27; for G58U G141C: 0.501.
With G58U G141A, the “polymerase ribozyme fitness (log ratio)” value turned out to be 1.05.
Turning to G58C G84U G136U, the “polymerase ribozyme fitness (log ratio)” value was -3.72.
In the case of A60G C93A A97C A110U C123U U130G G133A, the “polymerase ribozyme fitness (log ratio)” value is not above -4.2.
With G58U the figure was -0.0298; with A60G C76A A91G C95U A107C, not above -4.2.
With G59A A64C G88C the figure was not above -4.2; with G59U G68A U78C C93G G124A C131G G141U, not above -4.2.
As for G59C G80A C93A, the “polymerase ribozyme fitness (log ratio)” value is -3.86.
With G59C A142C the figure was -0.57; with G59A G88A, -4.04; with G59A G88C, -3.73.
The same measure for G59A G88U: -3.96.
The same measure for G59U G94U C105U G124U G143C: -3.65.
With G58U U61G C63U G74C G141C, the “polymerase ribozyme fitness (log ratio)” value is not above -4.2.
On to G59A C76G C93G, for which the “polymerase ribozyme fitness (log ratio)” value was not above -4.2.
The same measure for A60C G62C G83U G133A: not above -4.2; for G58U U61A U90A A142G: not above -4.2.
With G59C U78G G81C the figure was -4.11.
With G58C G86U U104G the figure was -1.93; with G59C C95A C99G, not above -4.2.
As to A60C U61C C76U A121G, the “polymerase ribozyme fitness (log ratio)” value was not above -4.2.
With G58U C87U C125G the figure was -0.741; with G58C U135G, -3.82.
The same measure for G59C A107U G143U: not above -4.2; for G59C U101G: -0.121; for A60C C76U: -3.17.
As for G59A G86U A119U G140U, the “polymerase ribozyme fitness (log ratio)” value was -3.26.
With G59C C76A C87U A147C the figure was -2.29; with G58U G83A C85U, -0.262; with G59C C99G G141U, -1.13.
With G59C A119C the figure was -0.18; with G59A A66G, -3.24.
With G58C C87G A98G the figure was not above -4.2; with G58U C69A G83A, -1.52; with G58C G59C C96U C131A, -4.15.
For the variant G58C C63U U102G A106U G126A C132A, the “polymerase ribozyme fitness (log ratio)” value was not above -4.2.
The same measure for G59A G86A: -2.02; for G59A G86U: -1.84.
Consider G59A C76A C85A G117A A122C, for which the “polymerase ribozyme fitness (log ratio)” value was -2.85.
With G59C A64U C75U C132U the figure was not above -4.2; with A60C U82G G84A, -1.71; with G59A G67A C108U, not above -4.2.
With G59A C149A the figure was -3.65; with G58C C96A A115U G128U, not above -4.2; with G59U C69G, -1.07.
Regarding G58U G62U C99U C118U U134C, the “polymerase ribozyme fitness (log ratio)” value was not above -4.2.
A60C G81A C87A G133C G143A U148A: the “polymerase ribozyme fitness (log ratio)” value is not above -4.2.
With G58C U78G C85G A106U A113G U144C the figure was not above -4.2; with G59U A73G, -0.629.
The same measure for G58C U61A C79A A91G G117A: not above -4.2; for G59A U82C U134A: -2.59; for G59A A73G U90C C93G C131U U144G: not above -4.2.
Regarding G58C C79G A107U U134A U139C, the “polymerase ribozyme fitness (log ratio)” value was not above -4.2.
In the case of G59A A89U, the “polymerase ribozyme fitness (log ratio)” value was -0.162.
With G58U U82A A142G the figure was -0.998; with G58C G70C G141A, not above -4.2.
The same measure for G59C A97U: -0.431; for A60C C105G: -3.44.
For the variant G59A G71A G117C, the “polymerase ribozyme fitness (log ratio)” value was -3.56.
